Residue numbers refer to the chain shown, from its start.
Columns and labels:
Assay in all cases: pull-down
[1] = biological target: T1, His6-GIGYF2 GYF domain (residues 529-597) (human, UniProt Q6Y7W6 529-597)
T1 sequence (looked up): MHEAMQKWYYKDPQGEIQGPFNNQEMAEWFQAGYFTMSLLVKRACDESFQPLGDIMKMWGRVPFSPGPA

[2] = biological target: T2, His6-GIGYF2 GYF domain F592E (human, UniProt Q6Y7W6 529-597, F592E)
T2 sequence (looked up): T1 sequence (looked up) with F64E

[3] = biological target: T3, His6-GIGYF1 GYF domain F533E (human, UniProt O75420 470-538, F533E)
T3 sequence (looked up): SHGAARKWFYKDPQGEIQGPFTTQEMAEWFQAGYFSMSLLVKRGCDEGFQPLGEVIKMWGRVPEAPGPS

[4] = biological target: T4, His6-GIGYF1 GYF domain (residues 470-538) (human, UniProt O75420 470-538)
T4 sequence (looked up): T3 sequence (looked up) with E64F

Measured: binding result

GWVPPPPGFAP (peptide, UniProt P26651 68-78, looked up) [GST-tagged fragment of the first tetra-proline region of TTP (residues 68-78)]
binds: all assays above
